B1: 20/26-mer-dGC8-N-ABA (dsDNA)
DNA 1: AACGACGGCCAGTGAATTCG
DNA 2: CCCGCGCGAATTCACTGGCCGTCGTT
modifications: template dG at position 21 from 3' end (6 from 5' end) is N-(2'-deoxyguanosin-8-yl)-3-aminobenzanthrone
B2: 22/26-mer-dGC8-N-ABA (dsDNA)
DNA 1: AACGACGGCCAGTGAATTCGCG
DNA 2: CCCGCGCGAATTCACTGGCCGTCGTT
modifications: template dG at position 21 from 3' end (6 from 5' end) is N-(2'-deoxyguanosin-8-yl)-3-aminobenzanthrone
B3: 18/26-mer (dsDNA)
DNA 1: AACGACGGCCAGTGAATT
DNA 2: CCCGCGCGAATTCACTGGCCGTCGTT
B4: 21/26-mer (dsDNA)
DNA 1: AACGACGGCCAGTGAATTCGC
DNA 2: CCCGCGCGAATTCACTGGCCGTCGTT
B5: 19/26-mer (dsDNA)
DNA 1: AACGACGGCCAGTGAATTC
DNA 2: CCCGCGCGAATTCACTGGCCGTCGTT
B6: 21/26-mer-dGC8-N-ABA (dsDNA)
DNA 1: AACGACGGCCAGTGAATTCGC
DNA 2: CCCGCGCGAATTCACTGGCCGTCGTT
modifications: template dG at position 21 from 3' end (6 from 5' end) is N-(2'-deoxyguanosin-8-yl)-3-aminobenzanthrone
B7: 18/26-mer-dGC8-N-ABA (dsDNA)
DNA 1: AACGACGGCCAGTGAATT
DNA 2: CCCGCGCGAATTCACTGGCCGTCGTT
modifications: template dG at position 21 from 3' end (6 from 5' end) is N-(2'-deoxyguanosin-8-yl)-3-aminobenzanthrone
B8: 19/26-mer-dGC8-N-ABA (dsDNA)
DNA 1: AACGACGGCCAGTGAATTC
DNA 2: CCCGCGCGAATTCACTGGCCGTCGTT
modifications: template dG at position 21 from 3' end (6 from 5' end) is N-(2'-deoxyguanosin-8-yl)-3-aminobenzanthrone
B9: 22/26-mer (dsDNA)
DNA 1: AACGACGGCCAGTGAATTCGCG
DNA 2: CCCGCGCGAATTCACTGGCCGTCGTT
B10: 20/26-mer (dsDNA)
DNA 1: AACGACGGCCAGTGAATTCG
DNA 2: CCCGCGCGAATTCACTGGCCGTCGTT

The series addresses T1, hPolη (human DNA polymerase eta) (Homo sapiens, UniProt Q9Y253 1-713).
T1 sequence: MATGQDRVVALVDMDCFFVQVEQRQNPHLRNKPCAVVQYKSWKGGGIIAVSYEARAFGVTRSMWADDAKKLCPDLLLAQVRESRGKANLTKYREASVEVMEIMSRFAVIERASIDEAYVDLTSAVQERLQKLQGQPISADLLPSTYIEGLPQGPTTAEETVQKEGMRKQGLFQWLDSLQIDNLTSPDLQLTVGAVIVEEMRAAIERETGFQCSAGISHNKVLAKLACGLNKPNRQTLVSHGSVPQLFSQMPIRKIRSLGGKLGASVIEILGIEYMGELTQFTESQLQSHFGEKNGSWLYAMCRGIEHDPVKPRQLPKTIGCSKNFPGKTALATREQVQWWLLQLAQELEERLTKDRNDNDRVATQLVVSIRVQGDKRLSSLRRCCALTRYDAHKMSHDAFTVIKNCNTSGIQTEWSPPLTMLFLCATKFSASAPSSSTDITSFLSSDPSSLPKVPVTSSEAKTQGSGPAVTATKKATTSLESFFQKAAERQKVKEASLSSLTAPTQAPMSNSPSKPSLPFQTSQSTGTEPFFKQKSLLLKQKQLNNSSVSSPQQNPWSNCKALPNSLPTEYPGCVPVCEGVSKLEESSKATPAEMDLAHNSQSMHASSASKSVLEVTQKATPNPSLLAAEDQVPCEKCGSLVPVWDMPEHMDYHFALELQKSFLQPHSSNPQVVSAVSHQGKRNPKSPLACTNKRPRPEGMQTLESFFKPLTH
As to the kind of experiment: EMSA.
B1: binding was put at a Kd of 12 ± 2 nM.
The result for B2 reads 24 ± 4 nM.
B3: binding was put at a Kd of 28 ± 3 nM.
B4 showed a Kd of 26 ± 1 nM.
In the case of B5, the Kd is 25 ± 5 nM.
Regarding B6, binding was characterised by a dissociation constant (Kd) of 26 ± 7 nM.
The molecule B7 registered a Kd of 32 ± 5 nM.
With B8, the Kd was 12 ± 2 nM.
The result for B9 reads 17 ± 6 nM; that for B10, 23 ± 2 nM.

By Kd is commonly meant a measure of binding affinity in units of concentration.

(Values after article PMC5048595.)
